Source: article PMC4140821 (2014)
Blank lines part the entries; values can stand above or below the binder they belong to.

Legend:
Assay in all cases: ITC
CSN5^ΔC,R106T = CSN5^ΔC,R106T (human, UniProt Q92905 1-257, R106T)
CSN6^ΔC,H44A = CSN6^ΔC,H44A (human, UniProt Q7L5N1 31-211, H44A)
CSN6^ΔC,V115E = CSN6^ΔC,V115E (human, UniProt Q7L5N1 31-211, V115E)

Sequence of CSN5^ΔC,R106T (Q92905 1-257 R106T): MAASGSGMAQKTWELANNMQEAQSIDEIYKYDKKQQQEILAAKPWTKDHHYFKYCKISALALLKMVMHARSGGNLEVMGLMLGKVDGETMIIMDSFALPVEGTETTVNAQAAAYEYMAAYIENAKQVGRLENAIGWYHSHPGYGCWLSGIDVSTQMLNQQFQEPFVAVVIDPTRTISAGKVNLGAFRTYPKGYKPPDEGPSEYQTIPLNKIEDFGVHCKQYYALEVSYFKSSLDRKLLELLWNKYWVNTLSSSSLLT

Kd (CSN5^ΔC,R106T): 5.8 µM
B1: CSN6^ΔC (human CSN6 31–211 fragment) (domain or fragment)
chain: MACGVTGSVSVALHPLVILNISDHWIRMRSQEGRPVQVIGALIGKQEGRNIEVMNSFELLSHTVEEKIIIDKEYYYTKEEQFKQVFKELEFLGWYTTGGPPDPSDIHVHKQVCEIIESPLFLKLNPMTKHTDLPVSVFESVIDIINGEATMLFAELTYTLATEEAERIGVDHVARMTATGS

Kd (CSN6^ΔC,H44A): 9.2 µM
Kd (CSN6^ΔC,V115E): 29 µM
B2: CSN5^ΔC,WT (human CSN5 1–257 fragment) (domain or fragment)
chain: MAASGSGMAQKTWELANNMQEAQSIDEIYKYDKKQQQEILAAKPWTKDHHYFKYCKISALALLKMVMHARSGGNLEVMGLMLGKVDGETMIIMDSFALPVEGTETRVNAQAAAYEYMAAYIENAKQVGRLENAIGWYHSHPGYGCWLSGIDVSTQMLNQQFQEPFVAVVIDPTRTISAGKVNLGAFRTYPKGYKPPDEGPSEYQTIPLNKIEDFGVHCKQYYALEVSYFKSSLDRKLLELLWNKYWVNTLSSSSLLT
